The values that follow come from patent US20240343820A1 (KITE PHARMA, published 2024).

Usually Kd stands for the equilibrium constant for the complex coming apart. Low values mean tighter binding, high ones weaker binding. Usually koff stands for the first-order rate constant of dissociation. A lower koff goes with a long-lived complex. For orientation: kon means the second-order rate constant of association. The low end stands for slower complex formation, the high end for faster complex formation.

T1: SLC20A1 (PIT1) receptor (UniProt Q8WUM9 1-679, limits assumed)
T1 construct: whole, on cells; Endogenous on K562 cells (a human cell line)
T1 sequence (looked up): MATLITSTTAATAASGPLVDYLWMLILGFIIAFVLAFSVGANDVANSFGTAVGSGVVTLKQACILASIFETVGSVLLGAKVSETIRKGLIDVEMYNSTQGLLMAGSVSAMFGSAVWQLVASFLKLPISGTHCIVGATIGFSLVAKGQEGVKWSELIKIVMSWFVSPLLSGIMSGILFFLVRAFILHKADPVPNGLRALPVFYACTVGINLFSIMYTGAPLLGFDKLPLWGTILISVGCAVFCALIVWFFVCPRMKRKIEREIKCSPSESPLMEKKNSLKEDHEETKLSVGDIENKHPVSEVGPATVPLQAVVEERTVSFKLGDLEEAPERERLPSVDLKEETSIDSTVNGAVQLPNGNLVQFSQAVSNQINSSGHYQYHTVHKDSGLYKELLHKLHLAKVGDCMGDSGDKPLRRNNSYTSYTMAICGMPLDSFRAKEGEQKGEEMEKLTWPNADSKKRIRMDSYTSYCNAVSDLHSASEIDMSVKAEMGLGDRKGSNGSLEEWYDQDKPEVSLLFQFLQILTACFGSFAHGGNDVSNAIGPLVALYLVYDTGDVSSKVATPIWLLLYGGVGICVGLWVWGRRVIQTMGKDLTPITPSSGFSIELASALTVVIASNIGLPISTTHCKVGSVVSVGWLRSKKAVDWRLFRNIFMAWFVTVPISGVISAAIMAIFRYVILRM

B1: 4F1 (antibody, V domains shown)
VH: QVQLQQPGAELVRPGSSVKLSCKASGYTFTSYWMDWMKQRPGQGLEWIGHIYPSDSETHYNQKFKDRATLTVDKSSSAAFMQLSSLTSEDSAVYYCARDYYWGQGTTLTVSS
VL: QAVVTQESALTTSPGETVTLTCRSSTGAVTTSNYANWVQEKPDHLFTGLIGGTNNRAPGVPARFSGSLIGDKAALTITGAQTEDEAIYFCALWYSNHLVFGGGTKLTVLQ
notes: Anti-GALV gp70; One id for the hybridoma supernatant and the recombinant murine IgG2a antibody; also called 4F1-HC / 4F1-LC1
B2: 9G11 (antibody, V domains shown)
VH: B1 VH with S31N, M37V, N61I, R67K, S77N, A78T, F80Y
VL: B1 VL with N96S, H97Q
notes: Anti-GALV gp70; One id for the hybridoma supernatant and the recombinant murine IgG2a antibody; also called 9G11-HC / 9G11-LC
B3: 40A3 (antibody, V domains shown)
VH: DVQLQESGPDLVKPSQSLSLTCTVTDFSITSDYTWHWVRQFPGNKLEWMAYIHYSGGTNYNPSLRSRISITRDTSKNQFFLHMNSVTTEDTATYYCLYYGSRDAVDYWGQGTSVTVSS
VL: QIVLTQSPAIMSASPGEKVTMTCSTSSSVTYMHWYQQKSGTSPKRWIYDTSKLASGVPARFSGSGSGTSYSLTISSMEAEDAATYYCQQWSSSPYTFGGGTKLEIK
notes: Anti-GALV gp70; One id for the hybridoma supernatant and the recombinant murine IgG2a antibody; also called 40A3-HC / 36H3-LC
B4: 40A6 (antibody, V domains shown)
VH: EVQLVESGGGLVKPGGSLKLSCAASGFTFSSYVLSWVRQIPEKRLEWVATINSGGSYTYYPDSVKGRFTISRDNAKNTLYLQMSSLRSEDTAIYYCARHLIYYDYDGYYFDTWGQGTSLTVSS
VL: DVVMTQTPLSLPVSLGDQASISCRSSQTLVHSNGNIYLHWYLQKPGQSPKLLIYKVSNRFSGVPDRFSGSGSGTDFTLKISRVETEDLGIYFCSQTTHVPPTFGGGTKLEIK
notes: Anti-GALV gp70; One id for the hybridoma supernatant and the recombinant murine IgG2a antibody; also called 40A6-HC / 40A6-LC
B5: 8G8 (antibody, V domains shown)
VH: B1 VH with S31N, M37V, H50N, K63N, R67K, A78T, F80Y
VL: B1 VL with T31R, P58L
notes: Anti-GALV gp70; One id for the hybridoma supernatant and the recombinant murine IgG2a antibody; also called 8G8-HC2 / 8G8-LC2
B6: 9A1 (antibody, V domains shown)
VH: B1 VH with K19R, M37V, H50N, R67K, A78T, F80Y
VL: B1 VL with T31R
notes: Anti-GALV gp70; One id for the hybridoma supernatant and the recombinant murine IgG2a antibody; also called 9A1-HC3 / 9A1-LC1
B7: 2D3 (antibody, V domains shown)
VH: B1 VH with S31N, M37V, H50N, K65R, R67K, S75P, A78T, F80Y
VL: B1 VL with P58L, T82I
notes: Anti-GALV gp70; One id for the hybridoma supernatant and the recombinant murine IgG2a antibody; also called 2D3-HC1 / 2D3-LC1
B8: 35C11 (antibody, V domains shown)
VH: QVQLQQSGPELVRPGVSVKISCKVSGYTFTDYTMHWVKQSHAKSLEWIGLISTYSGKTNYNQKLKDKATMTVDKSSSTAYMELARLTSEDSAIFYCARGGLRDAMDYWGQGTSVTVSS
VL: DIVLTQSPASLAVSLGQGATISCRASESVDSYGNSFMHWYQQKPGQPPKLLIYRASNLESGIPARFSGSGSGTDFTLTINPVEADDVATYYCLQSNEDPRTFGGGTKLEIK
notes: also called 35C11-HC / 35C11-LC
B9: huIgG1 monoFc tagged GALV gp70 protein (residues 505-616) (Fc fusion)
chain: not shown
notes: Residues are numbered according to Uniprot P21415; also called gp70 (505-616); coiled-coil (CC) domain of GALV gp70
B10: huIgG1 monoFc tagged GALV gp70 protein (residues 42-616) (Fc fusion)
chain: TSLQNKNPHQPMTLTWQVLSQTGDVVWDTKAVQPPWTWWPTLKPDVCALAASLESWDIPGTDVSSSKRVRPPDSDYTAAYKQITWGAIGCSYPRARTRMASSTFYVCPRDGRTLSEARRCGGLESLYCKEWDCETTGTGYWLSKSSKDLITVKWDQNSEWTQKFQQCHQTGWCNPLKIDFTDKGKLSKDWITGKTWGLRFYVSGHPGVQFTIRLKITNMPAVAVGPDLVLVEQGPPRTSLALPPPLPPREAPPPSLPDSNSTALATSAQTPTVRKTIVTLNTPPPTTGDRLFDLVQGAFLTLNATNPGATESCWLCLAMGPPYYEAIASSGEVAYSTDLDRCRWGTQGKLTLTEVSGHGLCIGKVPFTHQHLCNQTLSINSSGDHQYLLPSNHSWWACSTGLTPCLSTSVFNQTRDFCIQVQLIPRIYYYPEEVLLQAYDNSHPRTKREAVSLTLAVLLGLGITAGIGTGSTALIKGPIDLQQGLTSLQIAIDADLRALQDSVSKLEDSLTSLSEVVLQNRRGLDLLFLKEGGLCAALKEECCFYIDHSGAVRDSMKKLKEKLDKRQLERQKSQN
notes: Residues are numbered according to Uniprot P21415; also called gp70 (42-616); RBD+CC domains
B11: huIgG1 monoFc tagged GALV gp70 protein (residues 42-474) (Fc fusion)
chain: TSLQNKNPHQPMTLTWQVLSQTGDVVWDTKAVQPPWTWWPTLKPDVCALAASLESWDIPGTDVSSSKRVRPPDSDYTAAYKQITWGAIGCSYPRARTRMASSTFYVCPRDGRTLSEARRCGGLESLYCKEWDCETTGTGYWLSKSSKDLITVKWDQNSEWTQKFQQCHQTGWCNPLKIDFTDKGKLSKDWITGKTWGLRFYVSGHPGVQFTIRLKITNMPAVAVGPDLVLVEQGPPRTSLALPPPLPPREAPPPSLPDSNSTALATSAQTPTVRKTIVTLNTPPPTTGDRLFDLVQGAFLTLNATNPGATESCWLCLAMGPPYYEAIASSGEVAYSTDLDRCRWGTQGKLTLTEVSGHGLCIGKVPFTHQHLCNQTLSINSSGDHQYLLPSNHSWWACSTGLTPCLSTSVFNQTRDFCIQVQLIPRIYYYPEE
notes: also called gp70 (42-474)

Substitutions are numbered along the chain they refer to.

One assay concerns the target B9. The assay is described as follows: indirect ELISA, hybridoma supernatant on coated monoFc-tagged gp70 (505-616). (In an ELISA, binding on a coated surface is turned into a signal by an enzyme label.)
B1: the binding result is on record as “no binding”.
On the same count and under the same terms, the value for B2 was “no binding”; that for B3 was “no binding”.

A further assay has as its target B11. The assay is described as follows: BLI Octet Red96; antibody on AMC biosensor, 100 nM monoFc-gp70(42-474) analyte.
With B4, the Kd worked out at 0.0175 nM, the koff came to 6.72e-07 s⁻¹ and the on-rate (kon) was 38300 M⁻¹ s⁻¹.
The like results for B5 were, in that order, 0.193 nM, 6.31e-05 s⁻¹ and 328000 M⁻¹ s⁻¹.
Consider B1, for which the Kd was found to be 1.69 nM, the koff was 0.000607 s⁻¹ and the kon was determined as 359000 M⁻¹ s⁻¹.
Consider B6, for which the affinity, expressed as Kd, was 1.4 nM; the off-rate constant (koff) amounted to 0.000447 s⁻¹; the kon came to 318000 M⁻¹ s⁻¹.
The like results for B7 were, in that order, 1.71 nM, 0.00048 s⁻¹ and 281000 M⁻¹ s⁻¹.
B2 yielded a Kd of 0.704 nM, a koff of 0.000257 s⁻¹ and an association rate constant (kon) of 366000 M⁻¹ s⁻¹.
On the same counts, the results for B3 are 0.00524 nM, 6e-07 s⁻¹ and 114000 M⁻¹ s⁻¹.
The like results for B8 were, in that order, 0.0122 nM, 6.29e-07 s⁻¹ and 51500 M⁻¹ s⁻¹.

Another assay deals with T1, SLC20A1 (PIT1) receptor. Briefly: flow cytometry, monoFc-tagged gp70 (505-616) on K562 cells (endogenous SLC20A1), PE anti-human Fc secondary. (In flow cytometry, cells or beads pass a laser one at a time.)
Regarding B9, the binding result is “no binding (tested: 10.00 ug/100ul)”.

The target in a further assay is T1, SLC20A1 (PIT1) receptor. Briefly: flow cytometry, monoFc-tagged gp70 protein on K562 cells (endogenous SLC20A1), PE anti-human Fc secondary; CHO as negative cells.
Turning to B10, the binding result is on record as “binds”.
For B11, the binding result was “binds”.
